The target of experiment [1] is Follicle Stimulating Hormone (FSH) (UniProt P01215). Description: i-STAT sandwich cartridge, 0.4 mIU/L TSH plus FSH; row Ab capture; detection Ab: ME130.
In experiment [2] the target is Thyroid Stimulating Hormone (TSH) (UniProt P01215). As to the kind of experiment: FRET competition, unlabelled Ab pre-bound to Alexa488 antigen; competitor: BHQ-labelled TSH Ab 544.
Experiment [3] has the same target. Description: i-STAT sandwich cartridge with TSH; row Ab on capture beads; detection conjugate: ME130-ALP.
Experiment [4] has the same target. As to the kind of experiment: FRET competition, unlabelled Ab pre-bound to Alexa488 antigen; competitor: BHQ-labelled M4.
Experiment [5] shares this target. As to the kind of experiment: i-STAT sandwich cartridge with TSH; row Ab on capture beads; detection conjugate: TSH Ab 544-ALP.
Experiment [6] addresses Luteinizing Hormone (LH) (UniProt P01215). Description: FRET quenching titration, BHQ-10 antibody with Alexa Fluor 488 antigen, in solution.
Experiment [7] concerns the target Thyroid Stimulating Hormone (TSH) (UniProt P01215). Described as above.
For experiment [8], the target named is Follicle Stimulating Hormone (FSH) (UniProt P01215). The description is as above.
The target of experiment [9] is Chorionic Gonadotropin (CG) (UniProt P01215). Described as above.
Experiment [10] addresses Thyroid Stimulating Hormone (TSH) (UniProt P01215). Description: FRET competition, unlabelled Ab pre-bound to Alexa488 antigen; competitor: BHQ-labelled 5409.
For experiment [11] the target is unchanged. Description: i-STAT sandwich cartridge with TSH; row Ab on capture beads; detection conjugate: M4-ALP.
In experiment [12] the target is Chorionic Gonadotropin (CG) (UniProt P01215). Description: i-STAT sandwich cartridge, 0.4 mIU/L TSH plus CG; row Ab capture; detection Ab: ME130.
The target of experiment [13] is Luteinizing Hormone (LH) (UniProt P01215). Description: i-STAT sandwich cartridge, 0.4 mIU/L TSH plus LH; row Ab capture; detection Ab: ME130.
In experiment [14] the target is Thyroid Stimulating Hormone (TSH) (UniProt P01215). Description: FRET competition, unlabelled Ab pre-bound to Alexa488 antigen; competitor: BHQ-labelled 414B.
Experiment [15] addresses Chorionic Gonadotropin (CG) (UniProt P01215). Description: i-STAT sandwich cartridge, 0.4 mIU/L TSH plus CG; row Ab capture; detection Ab: T25C.
The target in experiment [16] is Thyroid Stimulating Hormone (TSH) (UniProt P01215). As to the kind of experiment: i-STAT sandwich cartridge with TSH; row Ab on capture beads; detection conjugate: T25C-ALP.
Experiment [17] deals with Luteinizing Hormone (LH) (UniProt P01215). As to the kind of experiment: i-STAT sandwich cartridge, 0.4 mIU/L TSH plus LH; row Ab capture; detection Ab: T25C.
Experiment [18] addresses Follicle Stimulating Hormone (FSH) (UniProt P01215). Description: i-STAT sandwich cartridge, 0.4 mIU/L TSH plus FSH; row Ab capture; detection Ab: T25C.
Experiment [19] concerns the target Thyroid Stimulating Hormone (TSH) (UniProt P01215). As to the kind of experiment: FRET competition, unlabelled Ab pre-bound to Alexa488 antigen; competitor: BHQ-labelled T25C.
Experiment [20] has the same target. As to the kind of experiment: FRET competition, unlabelled Ab pre-bound to Alexa488 antigen; competitor: BHQ-labelled ME130.
Experiment [21] deals with Chorionic Gonadotropin (CG) (UniProt P01215). Description: i-STAT sandwich cartridge, 0.4 mIU/L TSH plus CG; row Ab capture; detection Ab: 5409.
Experiment [22] concerns the target Follicle Stimulating Hormone (FSH) (UniProt P01215). Description: i-STAT sandwich cartridge, 0.4 mIU/L TSH plus FSH; row Ab capture; detection Ab: 5409.
Experiment [23] addresses Thyroid Stimulating Hormone (TSH) (UniProt P01215). As to the kind of experiment: i-STAT sandwich cartridge with TSH; row Ab on capture beads; detection conjugate: 414B-ALP.
Experiment [24] addresses Luteinizing Hormone (LH) (UniProt P01215). As to the kind of experiment: i-STAT sandwich cartridge, 0.4 mIU/L TSH plus LH; row Ab capture; detection Ab: 5409.
The target in experiment [25] is Thyroid Stimulating Hormone (TSH) (UniProt P01215). Description: i-STAT sandwich cartridge with TSH; row Ab on capture beads; detection conjugate: 5409-ALP.
Experiment [26] has as its target Luteinizing Hormone (LH) (UniProt P01215). Description: LH-detecting i-STAT cartridge (LH capture, 414B detection), polystyrene LH 5304 scavenger beads added.
For experiment [27] the target is unchanged. Description: i-STAT sandwich cartridge, 0.4 mIU/L TSH plus LH; row Ab capture; detection Ab: 414B.
Experiment [28] deals with Chorionic Gonadotropin (CG) (UniProt P01215). Description: i-STAT sandwich cartridge, 0.4 mIU/L TSH plus CG; row Ab capture; detection Ab: 414B.
Experiment [29] deals with Follicle Stimulating Hormone (FSH) (UniProt P01215). Description: i-STAT sandwich cartridge, 0.4 mIU/L TSH plus FSH; row Ab capture; detection Ab: 414B.
The target in experiment [30] is Chorionic Gonadotropin (CG) (UniProt P01215). Description: i-STAT sandwich cartridge, 0.4 mIU/L TSH plus CG; row Ab capture; detection Ab: TSH Ab 544.
In experiment [31] the target is Follicle Stimulating Hormone (FSH) (UniProt P01215). Description: i-STAT sandwich cartridge, 0.4 mIU/L TSH plus FSH; row Ab capture; detection Ab: TSH Ab 544.
Experiment [32] deals with Luteinizing Hormone (LH) (UniProt P01215). Description: i-STAT sandwich cartridge, 0.4 mIU/L TSH plus LH; row Ab capture; detection Ab: TSH Ab 544.

Results on seven substances are retold here after patent US9068994.

By Kd is commonly meant a measure of binding affinity in units of concentration.

“Biospacific Cat#5409 SPTNE-5 TSH mouse monoclonal antibody”: the FSH CR (%) (cross reactivity) stood at 2.43% in experiment [1] and 0.65% in experiment [18]. For the same substance, the relative fluorescence (relative (same pair = 1.0)) stood at 0.93 in experiment [2]; 0.9 in [4]; 1 in experiment [10]; 0.88 in experiment [14]; 0.78 in experiment [19]; 0.78 in experiment [20]. Further, the electrochemical current (sandwich signal) is 53.6 nA in experiment [3], 1.41 nA in experiment [5], 15.2 nA in experiment [11] and 34.6 nA in experiment [16]. The dissociation constant (Kd) was 1000 nM with Luteinizing Hormone (LH) [6], 0.1 nM in experiment [7], 1000 nM in experiment [8] and 500 nM in experiment [9]. The CG CR (%) (cross reactivity) in experiment [12] stood at 0.78%; in experiment [15] it was 0.96%. Further, the LH CR (%) (cross reactivity) worked out at 10.1% in the experiment with Luteinizing Hormone (LH) [13] and 3.76% with Luteinizing Hormone (LH) [17].

Turning to “Fitzgerald Cat#10-T25C TSH mouse monoclonal antibody, clone M94206”, in experiment [21], the CG CR (%) (cross reactivity) was determined as 13.7%. Also, the relative fluorescence (relative (same pair = 1.0)) in experiment [2] was 0.97; in experiment [4] it was 0.92; in experiment [10], 0.95; in experiment [14] it was 0.97; in experiment [19], 1; in [20] it was 0.97. Moreover, the electrochemical current (sandwich signal) in experiment [3] amounted to 0.68 nA; in experiment [5] it was 0.83 nA; in experiment [23], 0.82 nA; in experiment [11], 40.9 nA; in experiment [25], 49.7 nA. Also, in experiment [22], the FSH CR (%) (cross reactivity) turned out to be 6.25%. For the same substance, the dissociation constant Kd with Luteinizing Hormone (LH) [6] was 35 nM; in [7], 0.08 nM; in [8], 300 nM; in experiment [9] it was 40 nM. Also, in the experiment with Luteinizing Hormone (LH) [24], the LH CR (%) (cross reactivity) was determined as 9.89%.

For the substance “Fitzgerald 10C-CR2151M4 TSH mouse monoclonal antibody, clone 157155”, the relative fluorescence (relative (same pair = 1.0)) in experiment [2] is 0.98; in [4], 1; in experiment [10], 0.94; in experiment [14], 0.9; in experiment [19], 0.74; in [20] it was 0.76. The electrochemical current (sandwich signal) in experiment [3] was 39.9 nA; in [5], 0 nA; in [16], 22.5 nA; in [25], 20.7 nA. The Kd with Luteinizing Hormone (LH) [6] was found to be 300 nM; in experiment [7], 0.18 nM; in experiment [8] it was 210 nM; in [9], 554 nM.

In the experiment with Luteinizing Hormone (LH) [26], “Biospacific LH 5304 monoclonal antibody (mus beta-LH, Catalog #5304 SP-5)” had a signal left after scavenger beads (% of signal without beads) of 4%.

For the substance “AbCam ME-130 (ab9390) TSH mouse monoclonal antibody”, the CG CR (%) (cross reactivity) in experiment [21] was found to be 11.8%. Also, the relative fluorescence (relative (same pair = 1.0)) was determined as 0.82 in experiment [2]; 0.77 in experiment [4]; 0.82 in experiment [10]; 0.99 in [14]; 0.88 in experiment [19]; 1 in experiment [20]. For the same substance, the FSH CR (%) (cross reactivity) in experiment [22] was 3.9%. The electrochemical current (sandwich signal) was determined as 10.8 nA in experiment [5], 50.5 nA in [11], 0.1 nA in experiment [16] and 54.7 nA in [25]. Further, the dissociation constant Kd with Luteinizing Hormone (LH) [6] came out at 54 nM; in experiment [7] it was 0.04 nM; in [8], 70 nM; in [9] it was 45 nM. Further, the LH CR (%) (cross reactivity) with Luteinizing Hormone (LH) [24] was 11.1%.

With “TSH Ab 544 (Abbott Diagnostics Division) (antibody)”, the relative fluorescence (relative (same pair = 1.0)) in experiment [2] is 1; in experiment [4] it was 0.92; in [10] it was 0.96; in [14] it was 0.89; in experiment [19], 0.71; in experiment [20], 0.72. Moreover, the LH CR (%) (cross reactivity) with Luteinizing Hormone (LH) [27] is 11.8%. The electrochemical current (sandwich signal) in [3] was determined as 34.9 nA; in experiment [23] it was 25 nA; in [11] it was 0.11 nA; in experiment [16] it was 22.4 nA; in experiment [25] it was 7.98 nA. The Kd in the experiment with Luteinizing Hormone (LH) [6] is 1000 nM; in experiment [7] it was 1.31 nM; in experiment [8], 1000 nM; in experiment [9], 210 nM. In experiment [28], the CG CR (%) (cross reactivity) was found to be 117%. In addition, the FSH CR (%) (cross reactivity) in experiment [29] is 7.15%.

With “Seradyn anti-alpha-LH monoclonal antibody Cat#MIT0414B, clone BB3.1.3”, the CG CR (%) (cross reactivity) in experiment [30] is 39.2%; in experiment [21], 84.6%. Moreover, the relative fluorescence (relative (same pair = 1.0)) stood at 0.83 in experiment [2]; 0.75 in experiment [4]; 0.81 in [10]; 1 in experiment [14]; 0.76 in experiment [19]; 0.86 in experiment [20]. The values for the FSH CR (%) (cross reactivity) in experiment [31] and in experiment [22] were 219% and 260%, respectively. For the same substance, the electrochemical current (sandwich signal) was 10.2 nA in experiment [5], 41.3 nA in experiment [11] and 40.3 nA in [25]. Besides, the equilibrium dissociation constant (Kd) worked out at 0.05 nM with Luteinizing Hormone (LH) [6], 0.04 nM in experiment [7], 0.1 nM in experiment [8] and 0.05 nM in experiment [9]. For the same substance, the LH CR (%) (cross reactivity) with Luteinizing Hormone (LH) [32] stood at 467%; with Luteinizing Hormone (LH) [24], 348%.
